Laboratory results published in the supplement of paper PMC10567573.

B1: USP39 (parent)
chain: TLSEAYIQIWKRRDNDETNQQGA
B2: HDAC6 (parent)
chain: DLMETTQYMNEGELRVLADTYDSV
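Note: lentivirally expressed fusions sorted by FACS into six bins by GFP to DsRed ratio, PSI derived from sequencing read proportions per bin multiplied by bin number.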

Variants of: B1
Test: protein stability index of a GFP-peptide fusion (GPS, HEK-293T) (PSI 1-6); higher = more stable
Details: c terminus: native
TLSEAYIQIWKRRDNDETNQQGY [A23Y] gave a protein stability index of 3.58. With TLSEAYIQIWKRRDNDETNQQGW [A23W] the protein stability index was 2.94. Work on TLSEAYIQIWKRRDNDETNQQGV [A23V] yielded a protein stability index of 4.23. For TLSEAYIQIWKRRDNDETNQQGT [A23T], the protein stability index was 3.73.

Variants of: B2
Test: as above
Details: c terminus: a fixed tail appended
DLMQTTQYMNEGELRVLADTYDSV [E4Q] gave a protein stability index of 3.94. For DLMDTTQYMNEGELRVLADTYDSV [E4D], the protein stability index was 2.52. Variant DLMCTTQYMNEGELRVLADTYDSV [E4C] has a protein stability index of 1.74. DLMHTTQYMNEGELRVLADTYDSV [E4H] gave a protein stability index of 2.18. Variant DLMWTTQYMNEGELRVLADTYDSV [E4W] has a protein stability index of 1.5. DLMFTTQYMNEGELRVLADTYDSV [E4F] gave a protein stability index of 1.48. DLMPTTQYMNEGELRVLADTYDSV [E4P] gave a protein stability index of 2.23. In the case of DLMTTTQYMNEGELRVLADTYDSV [E4T], the protein stability index is reported as 3. Work on DLMSTTQYMNEGELRVLADTYDSV [E4S] yielded a protein stability index of 1.78. DLMRTTQYMNEGELRVLADTYDSV [E4R] gave a protein stability index of 3.36. DLMATTQYMNEGELRVLADTYDSV [E4A] gave a protein stability index of 2.03. In the case of DLMITTQYMNEGELRVLADTYDSV [E4I], the protein stability index is reported as 1.11. In the case of DLMYTTQYMNEGELRVLADTYDSV [E4Y], the protein stability index is reported as 1.51. Variant DLMMTTQYMNEGELRVLADTYDSV [E4M] has a protein stability index of 1.31. DLMVTTQYMNEGELRVLADTYDSV [E4V] gave a protein stability index of 1.83. Work on DLMGTTQYMNEGELRVLADTYDSV [E4G] yielded a protein stability index of 1.7. With DLMNTTQYMNEGELRVLADTYDSV [E4N] the protein stability index was 1.98. DLMKTTQYMNEGELRVLADTYDSV [E4K] gave a protein stability index of 2.09. DLMERTQYMNEGELRVLADTYDSV [T5R] gave a protein stability index of 2.56. With DLMEITQYMNEGELRVLADTYDSV [T5I] the protein stability index was 2.67. Variant DLMESTQYMNEGELRVLADTYDSV [T5S] has a protein stability index of 1.96. Work on DLMEMTQYMNEGELRVLADTYDSV [T5M] yielded a protein stability index of 1.71. DLMELTQYMNEGELRVLADTYDSV [T5L] gave a protein stability index of 1.39. DLMEGTQYMNEGELRVLADTYDSV [T5G] showed a protein stability index of 3.72. Work on DLMEFTQYMNEGELRVLADTYDSV [T5F] yielded a protein stability index of 2.03. For DLMEHTQYMNEGELRVLADTYDSV [T5H], the protein stability index was 1.89. DLMENTQYMNEGELRVLADTYDSV [T5N] gave a protein stability index of 2.32. For DLMEPTQYMNEGELRVLADTYDSV [T5P], the protein stability index was 1.72. Variant DLMEDTQYMNEGELRVLADTYDSV [T5D] has a protein stability index of 4.43. DLMECTQYMNEGELRVLADTYDSV [T5C] showed a protein stability index of 2.38. Variant DLMEVTQYMNEGELRVLADTYDSV [T5V] has a protein stability index of 1.5. DLMEQTQYMNEGELRVLADTYDSV [T5Q] gave a protein stability index of 1.99. In the case of DLMEKTQYMNEGELRVLADTYDSV [T5K], the protein stability index is reported as 2.9. Work on DLMEWTQYMNEGELRVLADTYDSV [T5W] yielded a protein stability index of 1.61. DLMEETQYMNEGELRVLADTYDSV [T5E] gave a protein stability index of 2.54. Work on KLMETTQYMNEGELRVLADTYDSV [D1K] yielded a protein stability index of 2.28. With GLMETTQYMNEGELRVLADTYDSV [D1G] the protein stability index was 3.06. YLMETTQYMNEGELRVLADTYDSV [D1Y] gave a protein stability index of 2.04. Variant NLMETTQYMNEGELRVLADTYDSV [D1N] has a protein stability index of 2.18. Variant ALMETTQYMNEGELRVLADTYDSV [D1A] has a protein stability index of 1.77. FLMETTQYMNEGELRVLADTYDSV [D1F] gave a protein stability index of 2.46. Work on WLMETTQYMNEGELRVLADTYDSV [D1W] yielded a protein stability index of 1.55. With CLMETTQYMNEGELRVLADTYDSV [D1C] the protein stability index was 2.48. HLMETTQYMNEGELRVLADTYDSV [D1H] gave a protein stability index of 1.53. Work on ELMETTQYMNEGELRVLADTYDSV [D1E] yielded a protein stability index of 2.22. With PLMETTQYMNEGELRVLADTYDSV [D1P] the protein stability index was 4.29. Work on RLMETTQYMNEGELRVLADTYDSV [D1R] yielded a protein stability index of 3.01. Work on VLMETTQYMNEGELRVLADTYDSV [D1V] yielded a protein stability index of 1.25. With LLMETTQYMNEGELRVLADTYDSV [D1L] the protein stability index was 2.05. In the case of ILMETTQYMNEGELRVLADTYDSV [D1I], the protein stability index is reported as 3.02. MLMETTQYMNEGELRVLADTYDSV [D1M] showed a protein stability index of 1.54. Work on QLMETTQYMNEGELRVLADTYDSV [D1Q] yielded a protein stability index of 2.25. For TLMETTQYMNEGELRVLADTYDSV [D1T], the protein stability index was 2.27. Work on DEMETTQYMNEGELRVLADTYDSV [L2E] yielded a protein stability index of 4.57. Variant DFMETTQYMNEGELRVLADTYDSV [L2F] has a protein stability index of 3.49. In the case of DWMETTQYMNEGELRVLADTYDSV [L2W], the protein stability index is reported as 3.31. For DQMETTQYMNEGELRVLADTYDSV [L2Q], the protein stability index was 4.68. DKMETTQYMNEGELRVLADTYDSV [L2K] showed a protein stability index of 4.96. DNMETTQYMNEGELRVLADTYDSV [L2N] gave a protein stability index of 4.32. Variant DPMETTQYMNEGELRVLADTYDSV [L2P] has a protein stability index of 4.8. With DGMETTQYMNEGELRVLADTYDSV [L2G] the protein stability index was 3.22. DDMETTQYMNEGELRVLADTYDSV [L2D] showed a protein stability index of 5.2. DCMETTQYMNEGELRVLADTYDSV [L2C] showed a protein stability index of 3.12. DMMETTQYMNEGELRVLADTYDSV [L2M] gave a protein stability index of 3.77. With DIMETTQYMNEGELRVLADTYDSV [L2I] the protein stability index was 1.55. Variant DAMETTQYMNEGELRVLADTYDSV [L2A] has a protein stability index of 2.33. In the case of DYMETTQYMNEGELRVLADTYDSV [L2Y], the protein stability index is reported as 3.88. In the case of DHMETTQYMNEGELRVLADTYDSV [L2H], the protein stability index is reported as 5.04. DTMETTQYMNEGELRVLADTYDSV [L2T] gave a protein stability index of 4.52. DRMETTQYMNEGELRVLADTYDSV [L2R] gave a protein stability index of 4.52. Variant DVMETTQYMNEGELRVLADTYDSV [L2V] has a protein stability index of 1.62. Work on DLGETTQYMNEGELRVLADTYDSV [M3G] yielded a protein stability index of 3.84. With DLLETTQYMNEGELRVLADTYDSV [M3L] the protein stability index was 1.91. Work on DLTETTQYMNEGELRVLADTYDSV [M3T] yielded a protein stability index of 3.15. With DLHETTQYMNEGELRVLADTYDSV [M3H] the protein stability index was 3.91. With DLKETTQYMNEGELRVLADTYDSV [M3K] the protein stability index was 4.13. Work on DLPETTQYMNEGELRVLADTYDSV [M3P] yielded a protein stability index of 4.65. DLCETTQYMNEGELRVLADTYDSV [M3C] gave a protein stability index of 1.69. DLQETTQYMNEGELRVLADTYDSV [M3Q] showed a protein stability index of 3.29. DLWETTQYMNEGELRVLADTYDSV [M3W] gave a protein stability index of 2. Work on DLFETTQYMNEGELRVLADTYDSV [M3F] yielded a protein stability index of 2.22. With DLNETTQYMNEGELRVLADTYDSV [M3N] the protein stability index was 4.55. In the case of DLYETTQYMNEGELRVLADTYDSV [M3Y], the protein stability index is reported as 2.74. In the case of DLRETTQYMNEGELRVLADTYDSV [M3R], the protein stability index is reported as 3.77. Work on DLEETTQYMNEGELRVLADTYDSV [M3E] yielded a protein stability index of 3.74. For DLDETTQYMNEGELRVLADTYDSV [M3D], the protein stability index was 4.6. With DLAETTQYMNEGELRVLADTYDSV [M3A] the protein stability index was 3.05. DLSETTQYMNEGELRVLADTYDSV [M3S] showed a protein stability index of 3.48. In the case of DLIETTQYMNEGELRVLADTYDSV [M3I], the protein stability index is reported as 2.13. DLVETTQYMNEGELRVLADTYDSV [M3V] showed a protein stability index of 2.2.
